A short description of assay [1]: N—H insertion, aniline with ethyl diazo acetate (EDA). Type of assay: biochemical. The conditions noted are these: for TTn / % Yield: protein 10 uM, EDA 8.5 mM, aniline 20 mM, Na2S2O4 10 mM, 12 h; for % Yield: product 4.3. The procedure, abridged: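 Final reactions contained 10 or 20 μM P450BM3 variant, 20 mM aniline, 8.5 mM EDA and 10 mM Na2S2O4 in 0.1 M phosphate pH 8.0 under argon, with MeOH cosolvent. After 12 h at 25° C, products were extracted into cyclohexane and quantified by GC-FID against phenethyl alcohol internal standard and calibration curves from authentic standards, giving yield and TTN.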

Assay [2] is described as follows: Small-scale anaerobic C—H amination with purified enzymes, azide 6. The format is biochemical. The conditions noted are these: for Product (7): 0.1% loading, azide 6. On the procedure:
Hemin also was capable of catalyzing this reaction when reduced with dithionite (Table 13).
Small scale reactions containing either 0.1% loading of ABC-CIS or ABC-T268A or 1% loading of hemin with azides 1, 4, or 6 according to standard procedures.
Small-scale reactions (400 μL) were conducted in 2 mL crimp vials (Agilent Technologies, San Diego, Calif.) containing buffer (0.1 M potassium phosphate pH 8.0), enzyme (0.1-0.5% catalyst loading) and oxygen depletion system (10× stock solution containing 14,000 U/mL catalase, 1,000 U/mL glucose oxidase dissolved in 0.1 M KPi pH 8.0). Enzyme (P450 or P411) solution and oxygen depletion mixture were added to the vial with a small stir bar before crimp-sealing. Portions of phosphate buffer (190 μL, 0.1 M, pH=8.0), glucose (40 μL, 250 mM) and NADPH (40 μL, 20 mM), or multiples thereof, were combined in a larger crimp sealed vial and degassed by sparging with argon for at least 5 min. In the meantime, the headspace of the sealed 2 mL reaction vial with the P450 solution was made anaerobic by flushing argon over the protein solution (with no bubbling). The buffer/reductant/glucose solution (270 μL) was syringed into the reaction vial with continuous argon purge of the vial headspace. An arylsulfonyl azide solution in DMSO (10 μL, 80 mM) was added to the reaction vial via a glass syringe, and the reaction was left stirring for 24 h at room temperature under positive argon pressure. Final concentrations of the reagents were typically: 2 mM arylsulfonyl azide, 2 mM NADPH, 25 mM glucose, 2 or 10 μM P450. Reactions were quenched by adding 30 μL 3 M HCl under argon. To the vials were then added acetonitrile (430 uL) and internal standard (o-toluenesulfonamide 10 mM in 50% acetonitrile 50% water, 1 mM final concentration). […] A portion (20 μL) of the supernatant was then analyzed by HPLC. […] Sultam formation was quantified comparison of integrated peak areas of internal standard and sultam at 220 nm to a calibration curve made using synthetically produced sultam and internal standard.

From patent US20150267232A1, “IN VIVO AND IN VITRO CARBENE INSERTION AND NITRENE TRANSFER REACTIONS CATALYZED BY HEME ENZYMES” (California Institute of Technology, priority 2012, published 2015) come the findings set out here.

Positions count from the first letter of the chain named. Names may count otherwise.

With hemin, in assay [1] (1 mol % hemin), the “ratio of single to double insertion products” value lay in the range of 3.5 to 1 and the total product yield worked out at 51%. Besides, the “Product (7) / TTN on substrate 6” value in assay [2] (1% loading of hemin) came to 55.

B1: P450BM3: wild-type cytochrome P450BM3 from Bacillus megaterium (SEQ ID NO: 1) (protein, listed as Bacillus megaterium)
chain: TIKEMPQPKTFGELKNLPLLNTDKPVQALMKIADELGEIFKFEAPGRVTRYLSSQRLIKEACDESRFDKNLSQALKFVRDFAGDGLFTSWTHEKNWKKAHNILLPSFSQQAMKGYHAMMVDIAVQLVQKWERLNADEHIEVPEDMTRLTLDTIGLCGFNYRFNSFYRDQPHPFITSMVRALDEAMNKLQRANPDDPAYDENKRQFQEDIKVMNDLVDKIIADRKASGEQSDDLLTHMLNGKDPETGEPLDDENIRYQIITFLIAGHETTSGLLSFALYFLVKNPHVLQKAAEEAARVLVDPVPSYKQVKQLKYVGMVLNEALRLWPTAPAFSLYAKEDTVLGGEYPLEKGDELMVLIPQLHRDKTIWGDDVEEFRPERFENPSAIPQHAFKPFGNGQRACIGQQFALHEATLVLGMMLKHFDFEDHTNYELDIKETLTLKPEGFVVKAKSKKIPLGGIPSPSTEQSAKKVRKKAENAHNTPLLVLYGSNMGTAEGTARDLADIAMSKGFAPQVATLDSHAGNLPREGAVLIVTASYNGHPPDNAKQFVDWLDQASADEVKGVRYSVFGCGDKNWATTYQKVPAFIDETLAAKGAENIADRGEADASDDFEGTYEEWREHMWSDVAAYFNLDIENSEDNKSTLSLQFVDSAADMPLAKMHGAFSTNVVASKELQQPGSARSTRHLEIELPKEASYQEGDHLGVIPRNYEGIVNRVTARFGLDASQQIRLEAEEEKLAHLPLAKTVSVEELLQYVELQDPVTRTQLRAMAAKTVCPPHKVELEALLEKQAYKEQVLAKRLTMLELLEKYPACEMKFSEFIALLPSIRPRYYSISSSPRVDEKQASITVSVVSGEAWSGYGEYKGIASNYLAELQEGDTITCFISTPQSEFTLPKDPETPLIMVGPGTGVAPFRGFVQARKQLKEQGQSLGEAHLYFGCRSPHEDYLYQEELENAQSEGIITLHTAFSRMPNQPKTYVQHVMEQDGKKLIELLDQGAHFYICGDGSQMAPAVEATLMKSYADVHQVSEADARLWLQQLEEKGRYAKDVWAG
modifications: cytochrome P450NADPH-P-450 reductase precursor, cytochrome P450 (BM3), CYP102A1
B1 showed a TTn in assay [1] of 17. Moreover, the entries for the “% Yield” value in assay [1] (listed as BM3-WT) and in assay [1] (listed as WT-BM3) were 1.7% and “trace amounts”, respectively.

B2: BM3-T268A: P450BM3 variant: T268A (protein, listed as Bacillus megaterium)
chain: B1 chain with T268A
modifications: cytochrome P450NADPH-P-450 reductase precursor, cytochrome P450 (BM3), CYP102A1
With B2, in assay [1], the TTn is reported as 160 and the “% Yield” value amounted to 16%.

B3: ABC-T268A: P450BM3 variant: T268A, C400S (protein, listed as Bacillus megaterium)
chain: B1 chain with T268A, C400S
modifications: cytochrome P450NADPH-P-450 reductase precursor, cytochrome P450 (BM3), CYP102A1
notes: P450BM3 variant: T268A, C400S
Turning to B3, in assay [1], the TTn was determined as 95 and the “% Yield” value turned out to be 9.5%. Also, in assay [2], the “Product (7)” value is given as 27.

B4: ABC-CIS: BM3-CIS + C400S (protein, listed as Bacillus megaterium)
chain: TIKEMPQPKTFGELKNLPLLNTDKPVQALMKIADELGEIFKFEAPGRVTRYLSSQRLIKEACDESRFDKNLSQALKFARDFAGDGLVTSWTHEKNWKKAHNILLPSFSQQAMKGYHAMMVDIAVQLVQKWERLNADEHIEVSEDMTRLTLDTIGLCGFNYRFNSFYRDQPHPFIISMVRALDEVMNKLQRANPDDPAYDENKRQFQEDIKVMNDLVDKIIADRKARGEQSDDLLTQMLNGKDPETGEPLDDGNIRYQIITFLIAGHEATSGLLSFALYFLVKNPHVLQKVAEEAARVLVDPVPSYKQVKQLKYVGMVLNEALRLWPTAPAFSLYAKEDTVLGGEYPLEKGDEVMVLIPQLHRDKTVWGDDVEEFRPERFENPSAIPQHAFKPFGNGQRASIGQQFALHEATLVLGMMLKHFDFEDHTNYELDIKETLTLKPKGFVVKAKSKKIPLGGIPSPSTEQSAKKVRKKAENAHNTPLLVLYGSNMGTAEGTARDLADIAMSKGFAPQVATLDSHAGNLPREGAVLIVTASYNGHPPDNAKQFVDWLDQASADEVKGVRYSVFGCGDKNWATTYQKVPAFIDETLAAKGAENIADRGEADASDDFEGTYEEWREHMWSDVAAYFNLDIENSEDNKSTLSLQFVDSAADMPLAKMHGAFSTNVVASKELQQPGSARSTRHLEIELPKEASYQEGDHLGVIPRNYEGIVNRVTARFGLDASQQIRLEAEEEKLAHLPLAKTVSVEELLQYVELQDPVTRTQLRAMAAKTVCPPHKVELEALLEKQAYKEQVLAKRLTMLELLEKYPACEMKFSEFIALLPSIRPRYYSISSSPRVDEKQASITVSVVSGEAWSGYGEYKGIASNYLAELQEGDTITCFISTPQSEFTLPKDPETPLIMVGPGTGVAPFRGFVQARKQLKEQGQSLGEAHLYFGCRSPHEDYLYQEELENAQSEGIITLHTAFSRMPNQPKTYVQHVMEQDGKKLIELLDQGAHFYICGDGSQMAPAVEATLMKSYADVHQVSEADARLWLQQLEEKGRYAKDVWAG
modifications: cytochrome P450NADPH-P-450 reductase precursor, cytochrome P450 (BM3), CYP102A1
notes: BM3-CIS + C400S
As to B4, in assay [1], the TTn was found to be 136 and the “% Yield” value was 14%. Moreover, in assay [2], the “Product (7)” value worked out at 36.
